Reference: patent EP1052288A1, “Complex for transferring an anionic substance of interest into a cell” (TRANSGENE S.A., priority 1999, dated 2000)
Ends that are not written are not given here.

Experiments:
[1] = Sizes of complexes by quasi-elastic light scattering; type: physicochemical; conditions: complexes (-/+) [1:4], 6 µg DNA (pTG11033), 500 µl; for Sizes in ultrafiltrated serum: ultrafiltrated foetal calf serum
Protocol: Sizes of complexes prepared with a plasmid DNA (PTG11033; see EP-A 890 32, 9.6 kb) and the C1qA (4-26) peptide (see Table I) were evaluated. Complexes were formulated either in 5% glucose or in ultrafiltrated foetal calf serum (YM10 Amicon membrane). Formulation was made in 500 µl buffer, with 6 µg DNA and the quantity of peptide necessary to form a [1:4], [-:+] complex. As a control a polylysine SV40 NLS peptide was used. […] When oxidized, the dimerized C1qA peptide could form even smaller complexes, whatever the formulation buffer used. The reasonable sizes obtained in ultrafiltrated serum with C1qA peptides is an advantage for the use of this peptide rather than polylysine derivatives.
Complexes (-/+):[1:4], 6 µg DNA, 500 µl.
Size measures: quasi-elastic light scattering, COULTER N4+. [formula] [formula] [formula] [formula]

plasmid pTG11033 = assay: Gel retardation assay (agarose gel electrophoresis); type: binding
Protocol: Gel retardation assay was performed with C1qA (4-26) in several buffers: PBS, TBS, 5% glucose, or ultrafiltrated serum (YM10 Amicon membrane). DNA and peptides have been mixed at charge ratios [-/+] of [1:4], [1:1] and [1:0.2].

SP-1052 oxidized: When oxidized, the dimerized C1qA peptide (CRAPDGKKGEAGRPGRRGRPGLK; also: oxidized disulfide dimer; UniProt P02745 26-48, looked up, fragment)
Sizes in 5% glucose [1]: 200 nm | Sizes in ultrafiltrated serum [1]: 300 nm

SP-1052: C1qA (4-26) peptide, complexed with plasmid DNA (CRAPDGKKGEAGRPGRRGRPGLK; also: complexed with plasmid DNA; UniProt P02745 26-48, looked up, fragment)
retardation in DNA (plasmid pTG11033; charge ratio [-/+] [1:1]): significative retardation | association of DNA to the peptides (plasmid pTG11033; charge ratio [-/+] [1:4], PBS, TBS, 5% glucose or ultrafiltrated serum, absence of visible band with ethidium bromide): strong association of DNA to the peptides | Sizes in 5% glucose [1]: 1µm | Sizes in ultrafiltrated serum [1]: 300-500 nm
